Measurements taken from doi:10.1101/2020.07.28.225359 (bioRxiv, 2020).
Values belong to the molecule of their own block, whether it stands above or below them.

Assays:
[1] = target: TRIM21 coiled-coil (CC235) (human) (UniProt P19474); assay: ITC
[2] = target: TRIM21 coiled-coil (CC235) (human) (UniProt P19474); assay: SEC-MALS
SAXS = target: the molecule itself; assay: SAXS

Kd [1]: 7 µM | dH (dimer dissociation) [1]: 65 kcal/mol | stoichiometry N [2]: 2
Molecule: TRIM21 coiled-coil (CC235) (from UniProt P19474 132-235) (domain or fragment)

B1: MBP-T21CC (MBPCC235) (domain or fragment, human, UniProt P19474 132-235, looked up)
chain: AQEYQEKLQVALGELRRKQELAEKLEVEIAIKRADWKKTVETQKSRIHAEFVQQKNFLVEEEQRQLQELEKDEREQLRILGEKEAKLAQQSQALQELISELDRR
stoichiometry N (SAXS): 2
